Experimental data from PMC9638894.

Legend:
[1] = molecular target: type IF CRISPR RNA guided surveillance complex (Csy) (UniProt Q02MM2); test: ITC; AcrIF9 or AcrIF2 binding to the Csy complex; conditions not told in the text shown (Supplemental Figure S8)
[2] = molecular target: type IF CRISPR RNA guided surveillance complex (Csy) (UniProt Q02MM2); test: differential scanning fluorimetry; purified Csy (0.323 uM) or AcrIF2-bound Csy (0.475 uM) in 100 mM citrate phosphate buffer pH 7.5 with SYPRO orange; 25°C to 95°C at 1°C/min; maximum intensity of each curve compared

Sequence of AcrIF2 (natural protein) (Q6TM72 whole entry): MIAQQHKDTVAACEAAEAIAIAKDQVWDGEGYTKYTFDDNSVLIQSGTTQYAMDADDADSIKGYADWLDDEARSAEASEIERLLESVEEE

AcrIF2 (natural protein)
dH [1]: < 0
increase in temperature at the maximum DSF intensity compared to unbound Csy [2]: 3 °C
